From patent US20240376170A1 (BRIGHT PEAK THERAPEUTICS, published 2024)
Bridges are numbered along the chain shown (N, C = ends). Primed or numbered codes have the meaning given here. [ ]: non-standard residue; d: D form. Ygp(4) = Tyr with amino-capped PEG8 (O-(8x polyethylene glycol-amino)-tyrosine); Yn3(4) = Tyr with azide-capped PEG9 (O-(9x polyethylene glycol-azido)-tyrosine); PEG4′ = 4x polyethylene glycol; hSer = N[C@@H](CCO)C(=O)O; Nle = CCCC[C@H](N)C(=O)O

T1: IL-2 receptor βγ complex (human, UniProt P14784 27-551; P31785 23-369)
T1 sequence (looked up) 1: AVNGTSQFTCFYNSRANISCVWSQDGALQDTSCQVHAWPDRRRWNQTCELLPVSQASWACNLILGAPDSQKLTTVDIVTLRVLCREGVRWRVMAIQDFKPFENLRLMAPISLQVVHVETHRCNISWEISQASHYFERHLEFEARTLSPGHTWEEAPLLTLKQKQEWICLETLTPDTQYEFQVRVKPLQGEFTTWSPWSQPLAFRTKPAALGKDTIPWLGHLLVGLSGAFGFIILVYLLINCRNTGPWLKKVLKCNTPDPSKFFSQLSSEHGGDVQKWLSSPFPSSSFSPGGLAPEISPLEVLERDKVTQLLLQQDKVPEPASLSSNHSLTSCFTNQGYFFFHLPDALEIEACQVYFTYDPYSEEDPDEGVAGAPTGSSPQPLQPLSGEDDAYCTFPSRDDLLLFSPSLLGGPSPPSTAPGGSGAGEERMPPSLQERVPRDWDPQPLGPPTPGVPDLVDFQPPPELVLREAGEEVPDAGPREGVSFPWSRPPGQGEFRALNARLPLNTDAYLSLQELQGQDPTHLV
T1 sequence (looked up) 2: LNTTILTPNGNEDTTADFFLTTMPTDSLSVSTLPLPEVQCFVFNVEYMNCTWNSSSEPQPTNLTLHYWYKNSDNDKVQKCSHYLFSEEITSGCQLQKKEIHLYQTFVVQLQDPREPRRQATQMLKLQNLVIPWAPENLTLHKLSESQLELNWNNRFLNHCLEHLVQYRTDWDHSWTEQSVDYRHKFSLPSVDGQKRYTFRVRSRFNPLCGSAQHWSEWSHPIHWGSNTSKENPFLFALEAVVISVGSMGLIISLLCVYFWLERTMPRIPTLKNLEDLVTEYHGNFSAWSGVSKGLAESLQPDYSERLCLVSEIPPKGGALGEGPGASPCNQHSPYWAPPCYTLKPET


Experiments:
IL-2 receptor βγ complex [1] = biological target: T1, IL-2 receptor βγ complex; experiment: cell-based or functional assay
IL-2 receptor βγ complex [2] = biological target: T1, IL-2 receptor βγ complex; experiment: cell-based or functional assay; remark: listed apart in the source

Row | Average EC50, pSTAT5 Assay (T cells) (IL-2 receptor βγ complex [1]) [nM] | Average EC50, pSTAT5 Assay in NK cells (IL-2 receptor βγ complex [2]) [nM] | Binder
1 | 1.73 | 0.379 | CMP-300, MMP2 cleaved molecule (ligand, not fully specified; ends and bridges not checked; also: cleaved by MMP2, product not given here, N-terminus linked to another sequence via PEG4, Glu23 side chain linked to another sequence) APTSSSTKKTQLQLEHLLLDLQEILNGINNYKNPKLTR[Nle]L[hSer][Yn3(4)]KF[Ygp(4)][Nle]PKKATELKHLQCLEEELKPLEEVL[hSer]LAQSKNFHLRPRDLISNINVIVLELKGSETTF[hSer]CEYADETATIVEFLNRWITFSQSIISTLT
2 | 6.3 | 0.981 | CMP-168, MMP2 cleaved molecule (ligand, not fully specified; ends and bridges not checked; also: MMP2 cleaved, cleavage site and linker fragments on Lys9 and Glu23 side chains not given here) APTSSSTKKTQLQLEHLLLDLQEILNGINNYKNPKLTR[Nle]L[hSer][Yn3(4)]KF[Ygp(4)][Nle]PKKATELKHLQCLEEELKPLEEVL[hSer]LAQSKNFHLRPRDLISNINVIVLELKGSETTF[hSer]CEYADETATIVEFLNRWITFSQSIISTLT
3 | 144 | 53.9 | CMP-168 (ligand, bridge 9-23; not fully specified (bridges); ends not checked; also: sequence of the cleavable bridging peptide not given here) APTSSSTKKTQLQLEHLLLDLQEILNGINNYKNPKLTR[Nle]L[hSer][Yn3(4)]KF[Ygp(4)][Nle]PKKATELKHLQCLEEELKPLEEVL[hSer]LAQSKNFHLRPRDLISNINVIVLELKGSETTF[hSer]CEYADETATIVEFLNRWITFSQSIISTLT
4 | 94.7 | 38.1 | CMP-300 (ligand, lactam N-31; ends not checked) GPLGLAG[PEG4′]APTSSSTKKTQLQLEHLLLDLQEILNGINNYKNPKLTR[Nle]L[hSer][Yn3(4)]KF[Ygp(4)][Nle]PKKATELKHLQCLEEELKPLEEVL[hSer]LAQSKNFHLRPRDLISNINVIVLELKGSETTF[hSer]CEYADETATIVEFLNRWITFSQSIISTLT
